Assay [1] addresses T1, fusion protein of a human IgG1 Fc domain and human LAP-TGFβ1 (human, UniProt P01137 30-390).
T1 construct: printed both as Fc-huB1 and LAP-TGFβ-Fc; also called Fc-huB1; Fc-human LAP
Briefly: BLI, 2:1 heterogeneous ligand model, component 1. Here is the method: (§1) The 20E6_H0.2aL1_IgG1 antibody was biotinylated using EZ-Link SulfoNHS-LC-Biotin (ThermoFisher). A streptavidin-functionalized tip was equilibrated in binding buffer (10 mM sodium phosphate, 150 mM sodium chloride, 1% (w/v) bovine serum albumin, 0.05% (w/v) sodium azide, pH 7.4) and dipped in a 10 μg/mL solution of biotinylated anti-LAP in binding buffer for 30 seconds to load the tip with antibody. The antibody-loaded tip was then washed in binding buffer and placed in a solution containing 0-24 nM of a fusion protein having a human IgG1 Fc domain fused to either human LAP-TGFβ1, human LAP-TGFβ2 or human LAP-TGFβ3. The antigen was allowed to bind to antibody for 5 minutes (association phase), and then the tip was moved to binding buffer (dissociation phase). The association and dissociation phases were fit to a 2:1 heterogenous ligand binding model to determine the binding rate constants. As shown in FIG. 21A and Table 17, 20E6_H0.2aL1_IgG1 bound with sub-nanomolar affinity to human LAP-TGFβ1, but not to human LAP-TGFβ2 (FIG. 21B) or LAP-TGFβ3 (FIG. 21C).

In assay [2] the target is T2, soluble complex of the ECR3E fragment of human LTBP1 and human LAP-TGFβ1 (human, UniProt Q14766 1286-1466, limits assumed).
T2 construct: domain: third cysteine-rich domain of human LTBP1, flanked by EGFR-like domains; also called ECR3E-LAP-TGFβ1; ECR3E-LAP
T2 sequence (chain, as listed by the source limits assumed, chain 1 of 2): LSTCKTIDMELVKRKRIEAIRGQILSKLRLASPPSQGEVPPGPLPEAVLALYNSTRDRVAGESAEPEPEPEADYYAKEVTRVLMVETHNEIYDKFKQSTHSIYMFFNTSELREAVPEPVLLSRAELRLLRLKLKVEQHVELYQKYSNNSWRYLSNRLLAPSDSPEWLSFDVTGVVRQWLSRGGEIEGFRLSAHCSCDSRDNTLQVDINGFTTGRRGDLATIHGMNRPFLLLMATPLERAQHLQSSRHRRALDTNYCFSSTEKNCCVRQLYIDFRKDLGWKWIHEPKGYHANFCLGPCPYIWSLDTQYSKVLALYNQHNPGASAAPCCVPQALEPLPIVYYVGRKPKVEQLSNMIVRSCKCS
T2 sequence (Q14766 1286-1466 limits assumed, chain 2 of 2): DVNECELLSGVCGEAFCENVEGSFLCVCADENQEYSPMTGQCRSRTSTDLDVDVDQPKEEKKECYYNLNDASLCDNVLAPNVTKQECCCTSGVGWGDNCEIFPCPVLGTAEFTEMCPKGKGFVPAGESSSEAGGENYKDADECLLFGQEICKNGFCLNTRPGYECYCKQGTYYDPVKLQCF
As to the kind of experiment: bio-layer interferometry, biotinylated antibody on streptavidin tip. The method, then:
A streptavidin-functionalized tip was equilibrated in binding buffer (10 mM sodium phosphate, 150 mM sodium chloride, 1% (w/v) bovine serum albumin, 0.05% (w/v) sodium azide, pH 7.4) and dipped in a 5 μg/mL solution of biotinylated antibody (i.e., 20E6_H0.2aL1_hIgG1, murine 16F4, or MHG8, a GARP-specific murine IgG2a described in Lienart et al. Science 2018; 362:952-956) in binding buffer for 30 seconds to load the tip with antibody. The antibody-loaded tip was then washed in binding buffer and placed in a solution containing 0-24 nM of a fusion protein containing a human IgG1 Fc domain fused to either human LAP-TGFβ1, the soluble GARP-LAP-TGFβ1 complex, or the soluble ECR3E-LAP-TGFβ1 complex. The antigen was allowed to bind to antibody for 5 minutes (association phase), and then the tip was moved to binding buffer (dissociation phase). The binding and dissociation data for 16F4 and MHG8 were well-fit by a 1:1 binding model. The association and dissociation phases for 20E6_H0.2aL1_hIgG1 antibody were fit to a 2:1 heterogenous ligand binding model to determine the binding rate constants.
As shown in FIG. 24 and Table 21, the 20E6_H0.2aL1_hIgG1 antibody bound to free LAP-TGFβ1 and the soluble GARP-LAP-TGFβ1 complex with nanomolar affinity, but not to the ECR3E-LAP-TGFβ1 complex. […]

In assay [3] the target is T3, fusion protein of a human IgG1 Fc domain and human LAP-TGFβ2 (human, UniProt P61812 21-414).
T3 construct: also called Fc-huB2; human LAP-TGFβ2-Fc
T3 sequence: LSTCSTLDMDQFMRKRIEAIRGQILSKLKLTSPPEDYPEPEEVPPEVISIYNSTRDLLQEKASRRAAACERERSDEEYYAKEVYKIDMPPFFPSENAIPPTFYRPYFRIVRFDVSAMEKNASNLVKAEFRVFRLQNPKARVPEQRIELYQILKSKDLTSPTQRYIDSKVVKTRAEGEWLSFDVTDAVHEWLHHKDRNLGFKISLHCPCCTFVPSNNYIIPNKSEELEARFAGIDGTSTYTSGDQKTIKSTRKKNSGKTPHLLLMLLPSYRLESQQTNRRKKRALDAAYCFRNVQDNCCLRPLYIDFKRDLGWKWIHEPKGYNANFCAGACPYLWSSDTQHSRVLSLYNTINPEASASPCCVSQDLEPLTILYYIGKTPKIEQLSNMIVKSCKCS
As to the kind of experiment: bio-layer interferometry, biotinylated antibody on streptavidin tip, Fc-huB2 in solution. The method, then:
as §1
(BLI is a label-free optical method that tracks binding on a fibre tip over time.)

Assay [4] has as its target T4, human LAP-TGFβ2 overexpressed on HT1080 cells (human, UniProt P61812 21-414).
T4 construct: also called HT1080-huB2
T4 sequence: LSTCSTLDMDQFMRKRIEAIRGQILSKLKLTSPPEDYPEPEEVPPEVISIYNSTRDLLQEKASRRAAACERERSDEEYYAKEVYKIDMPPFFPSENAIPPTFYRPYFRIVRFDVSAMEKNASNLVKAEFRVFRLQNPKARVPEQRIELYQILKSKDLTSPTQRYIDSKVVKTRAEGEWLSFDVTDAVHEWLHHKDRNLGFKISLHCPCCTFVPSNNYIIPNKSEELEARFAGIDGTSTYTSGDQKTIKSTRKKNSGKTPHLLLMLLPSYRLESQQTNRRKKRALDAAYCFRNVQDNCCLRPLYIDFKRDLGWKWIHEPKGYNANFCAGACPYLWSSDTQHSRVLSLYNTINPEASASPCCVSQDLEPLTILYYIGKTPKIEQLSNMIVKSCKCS
As to the kind of experiment: flow cytometry titration, HT1080-huB2 cells. Here is the method: This Example describes the binding of anti-LAP antibodies to LAP-TGFβ isoforms and LAP-TGFβ variants. In addition to antibodies 28G11_hIgG1, 22F9_hIgG1, and 20E6_hIgG1, anti-LAP antibodies 17G8_hIgG1, 24E3_hIgG1, and 2C9_(hyb) were also tested in this experiment. Briefly, 4×10⁵ each of (a) HT1080 cells, (b) HT1080 cells overexpressing human LAP-TGFβ1, (c) HT1080 cells overexpressing human LAP-TGFβ2, (d) HT1080 cells overexpressing human LAP-TGFβ3, (e) HT1080 cells overexpressing murine LAP-TGFβ1, (f) P3U1 cells, (g) P3U1 cells overexpressing LAP-TGFβ1 and GARP, and (h) P3U1 cells overexpressing LAP-TGFβ1 and LRRC33 were cultured in 96-well plates. The plates were centrifuged for 5 min at 1,500 rpm, liquid was removed, and cells were resuspended with 200 μL FACS buffer. The plates were centrifuged again, diluted primary antibody was added to each well, and the plates were incubated on ice for 20 minutes, followed by centrifugation. The cells were resuspended in 200 μL FACS buffer, centrifuged again, and resuspended in 50 μL diluted secondary antibody (Alexa647-anti-Human IgG or APC-anti-Mouse IgG). The plates were incubated on ice for 20 minutes in the dark, washed twice with 200 μL FACS buffer, and cells from each well (in 200 μL FACS buffer) were read on the Attune NXT instrument.
On the technique in general: A flow cytometer gives signals particle by particle.

T1 sequence (P01137 30-390 limits assumed): as the sequence (chain, as listed by the source limits assumed, chain 1 of 2) above

B1: 20E6_H0.2aL1_hIgG1 (antibody)
heavy: not shown
light: DIQMTQSPSSLSASVGDRVTITCRASQDITNYLNWYQQKPGKAVKLLIYYTSRLHSGVPSRFSGSGSGTDYTLTISSLQPEDFATYFCQQGDTLPWTFGQGTKLEIKRTVAAPSVFIFPPSDEQLKSGTASVVCLLNNFYPREAKVQWKVDNALQSGNSQESVTEQDSKDSTYSLSSTLTLSKADYEKHKVYACEVTHQGLSSPVTKSFNRGEC
notes: also called 20E6_H0.2aL1_IgG1; humanized 20E6
As to B1, in assay [1], the Kd is 11.4 nM, the koff was determined as 0.0369 s⁻¹ and the kon amounted to 3.24e+06 M⁻¹ s⁻¹. Moreover, the binding result in assay [2] is “no binding (tested: 24 nM)”. Besides, the binding result in assay [3] is recorded as “no binding (tested: 24 nM)”.

B2: 22F9_hIgG1 (antibody, V domains shown)
VH: QVQLQQPGAELVKPGASVKLSCKASGYTFTSYWMHWVKQRPGQGLEWIGMIHPNSGSTNYNEKFKSKATLTVDKSSSTAYMQLSSLTSEDSAVYYCAYYDYDGFFDVWGTGTTVTVSS
VL: DIVLTQSPASLDVSLGQRATISCRASKSVSTSGYSYMHWYQQKSGQPPKLLIYLASNLESGVPARFSGSGSGTHFTLNIHPVEEEDAATYYCQHSRELPYTFGGGTKLEIK
For B2, the binding result in assay [4] was “no binding (tested: about 800 ng/well)”.

As usually defined, the Kd is the equilibrium constant for the complex coming apart. The term koff denotes the first-order rate constant of dissociation. Low values mean slow dissociation, high ones fast dissociation. A word on the kon: it is the second-order rate constant of association. A higher kon goes with fast association.

The record behind these values is patent US20220017612A1 (TILOS THERAPEUTICS, published 2022).
